The values that follow come from publication PMC11189301, “Structure of the human outer kinetochore KMN network complex” (Nature Structural & Molecular Biology, 2024).

Changes are numbered by the printed parent chain. Names and notes keep the numbering of the source.

In one series the test system is MIS12C. Kind of series: SEC assessment of Knl1 mutants binding to MIS12C. Details: species or system Homo sapiens. The settings on record: Knl1 (2131–2337) mutant + MIS12C at 4 µM each, 20 mM HEPES pH 7.8, 150 mM NaCl, 0.5 mM TCEP, Superose 6, at least two repeats. The procedure:
Assessment of substitutions in the MIS12C–KNL1 interfaces
To test the effect of substitutions in the MIS12C–KNL1 interfaces, either wild-type MIS12C or MIS12C^Nsl1ΔC was mixed with either wild-type KNL1 or two mutants (KNL1^R2248D […] (KNL1^mut1), KNL1^S2270R S2272W (KNL1^mut2)) at 4 µM each in a buffer of 20 mM HEPES (pH 7.8), 150 mM NaCl and 0.5 mM TCEP, and 50 µl was loaded onto a Superose 6 size-exclusion column (Cytiva).
Extended Data Fig. 9 Biochemical validation of the MIS12C:Knl1 interface. a Coomassie blue-stained SDS-PAGE gels of the MIS12C:Knl1 interaction reconstitutions. MIS12C (WT) and MIS12C with Nsl1 truncated at the C-terminus (1–264 Nsl1 construct, MIS12C^Nsl1ΔC) were tested in their ability to bind either wild-type RWD domains of Knl1 (2131–2337 construct, labelled Knl1 for simplicity) or Knl1 mutants (R2248D/W2249S substitutions, Knl1^mut1, and S2270R/S2272W substitutions, Knl1^mut2, as well as S2270R/S2272W/R2248A/W2249S substitutions, Knl1^mut3). The binding experiments were repeated at least two independent times with identical results. The gels are aligned according to the fraction number of the protein sample eluted from the size exclusion column. b SEC elution chromatograms of all of the experiments described in (a). Source data

For series [1], the target named is T1, NDC80 complex (Ndc80, Nuf2, Spc24, Spc25), full length, unmodified (Homo sapiens, UniProt O14777 1-642; Q9BZD4 1-464; Q8NBT2 1-197; Q9HBM1 1-224).
T1 construct: Ndc80, subunit of human NDC80C; Nuf2, subunit of human NDC80C; Spc24, subunit of human NDC80C; Spc25, subunit of human NDC80C; The DS tag on Nuf2 is TEV cleavable; a cleavage is not described; Ndc80 and Nuf2 were in the cryo-EM sample but not seen at high resolution; also called wild-type NDC80; source: High-5 insect cells (baculovirus), purified (Strep-Tactin, Resource Q, Superdex 200); copies: …
T1 sequence (O14777 whole entry, chain 1 of 4): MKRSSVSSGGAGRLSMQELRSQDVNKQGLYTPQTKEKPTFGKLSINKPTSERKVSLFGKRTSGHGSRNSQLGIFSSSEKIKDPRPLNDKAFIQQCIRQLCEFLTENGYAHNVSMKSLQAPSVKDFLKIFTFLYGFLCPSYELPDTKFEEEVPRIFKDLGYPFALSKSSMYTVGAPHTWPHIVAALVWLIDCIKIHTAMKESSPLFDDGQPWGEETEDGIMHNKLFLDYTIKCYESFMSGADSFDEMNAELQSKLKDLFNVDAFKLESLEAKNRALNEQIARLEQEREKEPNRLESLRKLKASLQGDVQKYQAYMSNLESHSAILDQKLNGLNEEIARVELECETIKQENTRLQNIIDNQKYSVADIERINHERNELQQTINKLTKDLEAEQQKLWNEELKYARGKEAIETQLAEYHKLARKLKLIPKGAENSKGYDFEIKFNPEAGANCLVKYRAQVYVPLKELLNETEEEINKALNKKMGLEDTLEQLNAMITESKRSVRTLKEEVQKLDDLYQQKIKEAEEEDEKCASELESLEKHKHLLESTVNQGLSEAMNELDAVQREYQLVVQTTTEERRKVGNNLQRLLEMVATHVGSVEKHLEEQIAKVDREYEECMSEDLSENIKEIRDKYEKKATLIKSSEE
T1 sequence (Q9BZD4 whole entry, chain 2 of 4): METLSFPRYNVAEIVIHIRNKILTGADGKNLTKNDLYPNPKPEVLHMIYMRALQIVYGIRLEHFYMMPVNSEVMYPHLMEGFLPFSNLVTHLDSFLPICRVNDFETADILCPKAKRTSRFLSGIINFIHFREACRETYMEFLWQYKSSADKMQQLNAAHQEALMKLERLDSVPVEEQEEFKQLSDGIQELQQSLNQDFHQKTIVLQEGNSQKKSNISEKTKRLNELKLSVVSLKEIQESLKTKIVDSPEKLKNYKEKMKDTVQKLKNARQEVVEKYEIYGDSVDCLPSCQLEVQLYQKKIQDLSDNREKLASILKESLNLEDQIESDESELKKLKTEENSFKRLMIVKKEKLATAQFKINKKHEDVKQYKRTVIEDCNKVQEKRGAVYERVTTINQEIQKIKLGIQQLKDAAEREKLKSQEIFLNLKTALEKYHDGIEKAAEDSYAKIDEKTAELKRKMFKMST
T1 sequence (Q8NBT2 whole entry, chain 3 of 4): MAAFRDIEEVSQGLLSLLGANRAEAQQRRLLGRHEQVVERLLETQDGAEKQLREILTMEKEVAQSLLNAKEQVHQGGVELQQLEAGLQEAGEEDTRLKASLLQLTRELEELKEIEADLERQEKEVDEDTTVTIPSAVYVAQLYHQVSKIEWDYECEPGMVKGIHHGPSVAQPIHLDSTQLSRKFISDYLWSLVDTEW
T1 sequence (Q9HBM1 whole entry, chain 4 of 4): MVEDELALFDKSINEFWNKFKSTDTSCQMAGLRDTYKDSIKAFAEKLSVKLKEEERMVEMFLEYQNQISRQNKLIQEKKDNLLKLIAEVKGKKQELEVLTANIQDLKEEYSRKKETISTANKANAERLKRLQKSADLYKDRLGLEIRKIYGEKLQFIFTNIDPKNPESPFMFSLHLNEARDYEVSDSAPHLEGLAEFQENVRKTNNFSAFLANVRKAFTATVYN
Kind of series: SEC; MIS12C variant mixed with NDC80C at 4 µM each; 20 mM HEPES pH 7.8, 150 mM NaCl, 0.5 mM TCEP; Superose 6; fractions on SDS-PAGE. The note with it: both partners purified. (In gel filtration, larger molecules generally elute earlier.)

Another series concerns NDC80C. Kind of series: SEC assessment of MIS12C mutants binding to NDC80C. Set-up: species or system Homo sapiens. The note with it: MIS12C mutant + wild-type NDC80 at 4 µM each; 20 mM HEPES pH 7.8, 150 mM NaCl, 0.5 mM TCEP; Superose 6; SDS-PAGE; at least two repeats. As for the experimental part:
Assessment of substitutions in the MIS12C–NDC80C interfaces
To test the effect of substitutions in the MIS12C–NDC80C interfaces, either wild-type MIS12C or three MIS12C mutants (MIS12C^Nsl1-E219R V220R F221A, MIS12C^Dsn1-P332W R334A L336R, MIS12C^Nsl1-E219R V220R F221A, Dsn1-P332W R334A L336R) were mixed with wild-type NDC80 at 4 µM each in a buffer of 20 mM HEPES (pH 7.8), 150 mM NaCl and 0.5 mM TCEP, and 50 µl was loaded onto a Superose 6 size-exclusion column (Cytiva).
Extended Data Fig. 7 Biochemical characterization of MIS12C:NDC80C interactions. a Coomassie blue-stained SDS-PAGE gels of the MIS12C:NDC80C interaction reconstitutions. MIS12C (WT), MIS12C with E219/RV220R/F221A substitutions in Nsl1 (MIS12C^Nsl1 E219/RV220R/F221A) and MIS12C with P332W/R334A/L336R substitutions in Dsn1 (MIS12C^Dsn1 P332W/R334A/L336R) were tested for binding to full-length, unmodified NDC80C. The binding experiments were repeated at least two independent times with identical results. The gels are aligned according to the fraction number of the protein sample eluted from the size exclusion column. b SEC elution chromatograms of all of the experiments described in (a). c. Comparison of the Spc24:Spc25 interaction with peptides from MIS12C and CENP-T (PDB ID: 3VZA ref. [29]). Source data

B1: Knl1^mut2: Knl1 (2131–2337 construct) with S2270R S2272W substitutions (protein)
chain: SLSEWDVVEWSDDQAVFTFVYDTIQLTITFEESVVGFPFLDKRYRKIVDVNFQSLLDEDQAPPSSLLVHKLIFQYVEEKESWKKTCTTQHQLPKMLEEFSLVVHHCRLLGEEIEYLKRWGPNYNLMNIDINNNELRLLFRSWAAFAKFEITLFLSAYYPSVPLPSTIQNHVGNTSQDDIATILSKVPLENNYLKNVVKQIYQDLFQD
modifications: left off: His6, N-terminal, cleaved
notes: Knl1 (2131–2337 construct) with S2270R S2272W substitutions
With B1, the “MIS12C–Knl1 interaction by SEC, in words” value in the series on MIS12C was “did not importantly disrupt MIS12C–Knl1 interactions”; in the series on MIS12C (listed as Knl1mut2), “does not appear to reduce interaction with MIS12C”.

B2: Knl1^mut3: Knl1 (2131–2337 construct) with S2270R S2272W R2248A W2249A substitutions (protein, UniProt Q8NG31 2131-2337, looked up, variant S2270R S2272W R2248A W2249A)
chain: B1 chain with R118A, W119A
As to B2, the “MIS12C–Knl1 interaction by SEC, in words” value in the series on MIS12C was “little to no change in the interaction”.

B3: Knl1^mut1: Knl1 (2131–2337 construct) with R2248D W2249A substitutions (protein, UniProt Q8NG31 2131-2337, looked up, variant R2248D W2249A)
chain: B1 chain with R118D, W119A, R140S, W142S
Turning to B3, the “MIS12C–Knl1 interaction by SEC, in words” value with MIS12C was “did not importantly disrupt MIS12C–Knl1 interactions”.

B4: MIS12 complex (Mis12, Pmf1, Dsn1, Nsl1), wild type, full length (complex, Homo sapiens)
chain 1: MSVDPMTYEAQFFGFTPQTCMLRIYIAFQDYLFEVMQAVEQVILKKLDGIPDCDISPVQIRKCTEKFLCFMKGHFDNLFSKMEQLFLQLILRIPSNILLPEDKCKETPYSEEDFQHLQKEIEQLQEKYKTELCTKQALLAELEEQKIVQAKLKQTLTFFDELHNVGRDHGTSDFRESLVSLVQNSRKLQNIRDNVEKESKRLKIS
chain 2: MAEASSANLGSGCEEKRHEGSSSESVPPGTTISRVKLLDTMVDTFLQKLVAAGSYQRFTDCYKCFYQLQPAMTQQIYDKFIAQLQTSIREEISDIKEEGNLEAVLNALDKIVEEGKVRKEPAWRPSGIPEKDLHSVMAPYFLQQRDTLRRHVQKQEAENQQLADAVLAGRRQVEELQLQVQAQQQAWQALHREQRELVAVLREPE
chain 3: MTSVTRSEIIDEKGPVMSKTHDHQLESSLSPVEVFAKTSASLEMNQGVSEERIHLGSSPKKGGNCDLSHQERLQSKSLHLSPQEQSASYQDRRQSWRRASMKETNRRKSLHPIHQGITELSRSISVDLAESKRLGCLLLSSFQFSIQKLEPFLRDTKGFSLESFRAKASSLSEELKHFADGLETDGTLQKCFEDSNGKASDFSLEASVAEMKEYITKFSLERQTWDQLLLHYQQEAKEILSRGSTEAKITEVKVEPMTYLGSSQNEVLNTKPDYQKILQNQSKVFDCMELVMDELQGSVKQLQAFMDESTQCFQKVSVQLGKRSMQQLDPSPARKLLKLQLQNPPAIHGSGSGSCQ
chain 4: MAGSPELVVLDPPWDKELAAGTESQALVSATPREDFRVRCTSKRAVTEMLQLCGRFVQKLGDALPEEIREPALRDAQWTFESAVQENISINGQAWQEASDNCFMDSDIKVLEDQFDEIIVDIATKRKQYPRKILECVIKTIKAKQEILKQYHPVVHPLDLKYDPDPAPHMENLKCRGETVAKEISEAMKSLPALIEQGEGFSQVLRMQPVIHLQRIHQEVFSSCHRKPDAKPENFITQIETTPTETASRKTSDMVLKRKQTKDCPQRKWYPLRPKKINLDT
notes: Mis12, subunit of human MIS12C; Pmf1, subunit of human MIS12C; Dsn1, subunit of human MIS12C; Nsl1, subunit of human MIS12C; The DS tag on Pmf1 is TEV cleavable; a cleavage is not described; also called MIS12C (WT); wild-type MIS12C; source: High-5 insect cells (baculovirus), purified (Strep-Tactin, Resource S, Superdex 200); copies: + + +
Consider B4, for which the binding result in series [1] was “binds”.

B5: Dsn1-P332W R334A L336R mutant: MIS12C with P332W/R334A/L336R substitutions in Dsn1 (protein)
chain 1: B4 chain 1
chain 2: B4 chain 2
chain 3: B4 chain 3 with P332W, R334A, L336R
chain 4: B4 chain 4
modifications: left off: double strep II (DS), C-terminal, state not stated
Take B5: the “MIS12C–NDC80C interaction by SEC, in words” value (“MIS12C–NDC80C interaction” below) with NDC80C is “reduced the affinity of MIS12C for NDC80C”.

B6: MIS12 complex with Dsn1 P332W R334A L336R (complex, Homo sapiens)
chain 1: B4 chain 1
chain 2: B4 chain 2
chain 3: B4 chain 3 with P332W, R334A, L336R
chain 4: B4 chain 4
notes: Mis12, subunit of human MIS12C; Pmf1, subunit of human MIS12C; Dsn1, subunit of human MIS12C, P332W R334A L336R; Nsl1, subunit of human MIS12C; also called MIS12C^(Dsn1-P332W R334A L336R); MIS12C^(Dsn1 P332W/R334A/L336R); source: High-5 insect cells (baculovirus), purified (Strep-Tactin, Resource S, Superdex 200); copies: + + +
Turning to B6, the binding result in series [1] is on record as “binds”.

B7: MIS12 complex with Nsl1 E219R V220R F221A (complex, Homo sapiens)
chain 1: B4 chain 1
chain 2: B4 chain 2
chain 3: B4 chain 3
chain 4: B4 chain 4 with E219R, V220R, F221A
notes: Mis12, subunit of human MIS12C; Pmf1, subunit of human MIS12C; Dsn1, subunit of human MIS12C; Nsl1, subunit of human MIS12C, E219R V220R F221A; also called MIS12C^(Nsl1-E219R V220R F221A); MIS12C^(Nsl1 E219/RV220R/F221A); source: High-5 insect cells (baculovirus), purified (Strep-Tactin, Resource S, Superdex 200); copies: + + +
As for B7, the binding result in series [1] is given as “binds”.

B8: Nsl1-E219R V220R F221A mutant: MIS12C with E219R V220R F221A substitutions in Nsl1 (protein)
chain 1: B4 chain 1
chain 2: B4 chain 2
chain 3: B4 chain 3
chain 4: B4 chain 4 with E219R, V220R, F221A
modifications: left off: double strep II (DS), C-terminal, state not stated
On to B8, for which, in the series with NDC80C, the “MIS12C–NDC80C interaction” value is “reduced the affinity of MIS12C for NDC80C”.

B9: Dsn1-P332W R334A L336R and Nsl1-E219R V220R F221A mutants: MIS12C combining the Dsn1 and Nsl1 interface mutants (protein)
chain 1: B4 chain 1
chain 2: B4 chain 2
chain 3: B4 chain 3 with P332W, R334A, L336R
chain 4: B4 chain 4 with E219R, V220R, F221A
modifications: left off: double strep II (DS), C-terminal, state not stated
Turning to B9, the “MIS12C–NDC80C interaction” value in the series on NDC80C was “completely abolished MIS12C–NDC80C interactions”.
